This note sets out measurements from patent publication US8715959B2, “Substitution mutant receptors and their use in a nuclear receptor-based inducible gene expression system” (priority 2001, dated 2014).

B1: V96T/V107I/R175E: CfEcR-DEF LBD triple mutant, V96T, V107I and R175E (protein, listed as Choristoneura fumiferana)
chain: LTANQQFLIARLIWYQDGYEQPSDEDLKRITQTWQQADDENEESDTPFRQITEMTILTVQLIVEFAKGLPGFAKISQPDQITLLKACSSEVMMLRTARRYDAASDSILFANNQAYTRDNYRKAGMAYVIEDLLHFCRCMYSMALDNIHYALLTAVVIFSDRPGLEQPQLVEEIQEYYLNTLRIYILNQLSGSARSSVIYGKILSILSELRTLGMQNSNMCISLKLKNRKLPPFLEEIWDV
B2: V107I: CfEcR-DEF LBD substitution mutant, Valine (V) to Isoleucine (protein, listed as Choristoneura fumiferana)
chain: B1 chain with T96V, E175R
B3: V107I/YL27E/R175E: CfEcR-DEF LBD triple mutant, V107I, Y127E and R175E (protein, listed as Choristoneura fumiferana)
chain: B1 chain with T96V, Y127E
B4: T52V/V107I/R175E: CfEcR-DEF LBD triple mutant, T52V, V107I and R175E (protein, listed as Choristoneura fumiferana)
chain: B1 chain with T52V, T96V
B5: T52A/V107I/R175E: CfEcR-DEF LBD triple mutant, T52A, V107I and R175E (protein, listed as Choristoneura fumiferana)
chain: B1 chain with T52A, T96V
B6: V96A/V107I/R175E: CfEcR-DEF LBD triple mutant, V96A, V107I and R175E (protein, listed as Choristoneura fumiferana)
chain: B1 chain with T96A
B7: R175E: CfEcR-DEF LBD substitution mutant, Arginine (R) to Glutamine (E) (protein, listed as Choristoneura fumiferana)
chain: B1 chain with T96V, I107V
B8: V107I/Y127E: CfEcR-DEF LBD double mutant, Valine (V) to Isoleucine (I) and Tyrosine (Y) to Glutamine (E) (protein, listed as Choristoneura fumiferana)
chain: B1 chain with T96V, Y127E, E175R
B9: V107I/R175E: CfEcR-DEF LBD double mutant, V107I and R175E (protein, listed as Choristoneura fumiferana)
chain: B1 chain with T96V
B10: Y127E/R175E: CfEcR-DEF LBD double mutant, Y127E and R175E (protein, listed as Choristoneura fumiferana)
chain: B1 chain with T96V, I107V, Y127E
B11: T58A: CfEcR-DEF LBD substitution mutant, Threonine (T) to Alanine (A) (protein, listed as Choristoneura fumiferana)
chain: B1 chain with T58A, T96V, I107V, E175R
B12: T52A: CfEcR-DEF LBD substitution mutant, Threonine (T) to Alanine (A) (protein, listed as Choristoneura fumiferana)
chain: B1 chain with T52A, T96V, I107V, E175R
B13: V96D: CfEcR-DEF LBD substitution mutant, Valine (V) to Aspartic Acid (D) (protein, listed as Choristoneura fumiferana)
chain: B1 chain with T96D, I107V, E175R
B14: V59A: CfEcR-DEF LBD substitution mutant, Valine (V) to Alanine (A) (protein, listed as Choristoneura fumiferana)
chain: B1 chain with V59A, T96V, I107V, E175R
B15: M92A: CfEcR-DEF LBD substitution mutant, Methionine (M) to Alanine (A) (protein, listed as Choristoneura fumiferana)
chain: B1 chain with M92A, T96V, I107V, E175R
B16: V96T: CfEcR-DEF LBD substitution mutant, Valine (V) to Threonine (T) (protein, listed as Choristoneura fumiferana)
chain: B1 chain with I107V, E175R
B17: V96M: CfEcR-DEF LBD substitution mutant, Valine (V) to Methionine (M) (protein, listed as Choristoneura fumiferana)
chain: B1 chain with T96M, I107V, E175R
B18: T52L: CfEcR-DEF LBD substitution mutant, Threonine (T) to Leucine (L) (protein, listed as Choristoneura fumiferana)
chain: B1 chain with T52L, T96V, I107V, E175R
B19: T52I: CfEcR-DEF LBD substitution mutant, Threonine (T) to Isoleucine (I) (protein, listed as Choristoneura fumiferana)
chain: B1 chain with T52I, T96V, I107V, E175R
B20: E20A: CfEcR-DEF LBD substitution mutant, Glutamic Acid (E) to Alanine (A) (protein, listed as Choristoneura fumiferana)
chain: B1 chain with E20A, T96V, I107V, E175R
B21: T52V: CfEcR-DEF LBD substitution mutant, Threonine (T) to Valine (V) (protein, listed as Choristoneura fumiferana)
chain: B1 chain with T52V, T96V, I107V, E175R
B22: V96A: CfEcR-DEF LBD substitution mutant, Valine (V) to Alanine (A) (protein, listed as Choristoneura fumiferana)
chain: B1 chain with T96A, I107V, E175R
B23: T55A: CfEcR-DEF LBD substitution mutant, Threonine (T) to Alanine (A) (protein, listed as Choristoneura fumiferana)
chain: B1 chain with T55A, T96V, I107V, E175R

Positions count from the first letter of the chain named. Names and notes keep the numbering of the source.

The first assay has as its system CfEcR-DEF. The assay can be described thus: GAL4/mutant CfEcR-DEF + VP16/LmUSP-EF GAL4-driven luciferase reporter transactivation in NIH3T3 cells. The format is cell-based, Choristoneura fumiferana. The following applies: 10 nM GS™-E non-steroidal ligand; NIH3T3 cells; relative to Gal4/wild-type CfEcR-DEF switch activity. The protocol: DNAs corresponding to the various switch constructs outlined in Example 1, specifically switches 1.1-1.13, were transfected into mouse NIH3T3 cells (ATCC) or L57 cells (Dr. Peter Cherbas; Indiana University) as follows. Standard methods for culture and maintenance of the cells were followed. […] Superfect™ (Qiagen Inc.) was used for 3T3 cells and Lipofectamine™ (LifeTechnologies) was used for L57 cells as the transfection reagents. For 12-well plates, 4 μl of Superfect™ or Lipofectamine™ was mixed with 100 μl of growth medium. One μg of reporter construct and 0.25 μg of each receptor construct of the receptor pair to be analyzed were added to the transfection mix. […] The cells were harvested and reporter activity was assayed.
Cells were harvested 40 hours after adding ligands. […] Twenty μl of lysate were assayed.
Briefly, Applicants mutated amino acid residues predicted to be critical for ecdysteroid binding into alanine and created GAL4/mutantCfEcR-DEF cDNA gene expression cassettes as described in Example 1 above using the Quikchange PCR-mediated site-directed mutagenesis kit (Stratagene, La Jolla, Calif.). The mutated and the WT cDNAs were tested in GAL4-driven luciferase reporter assays.
DNAs corresponding to the various switch constructs outlined in Example 1, specifically switches 1.1-1.2, were transfected into mouse NIH3T3 cells (ATCC) as follows. […] Two μl of Superfect™ was mixed with 100 μl of growth medium and 50 ng of either GAL4/wild-type EcR or Gal4/mutant EcR cassette, 50 ng of VP16/LmUSP-EF and 200 ng of pFRLuc were added to the transfection mix. […] The cells were harvested and reporter activity was assayed as described above.
In general terms: Reporter assays use an easily measured gene product as a stand-in for the process of interest.
Turning to B1, the “Fold increase over WT, 10 nM GS™-E” value is recorded as 0.4 fold.

As for B2, the “Fold increase over WT, 10 nM GS™-E” value worked out at 12.4 fold.

With B3, the “Fold increase over WT, 10 nM GS™-E” value is 124.3 fold.

For the molecule B4, the “Fold increase over WT, 10 nM GS™-E” value came to 62.8 fold.

Consider B5, for which the “Fold increase over WT, 10 nM GS™-E” value is given as 2.3 fold.

For B6, the “Fold increase over WT, 10 nM GS™-E” value is listed as 21.1 fold.

In the case of B7, the “Fold increase over WT, 10 nM GS™-E” value turned out to be 22.0 fold.

With B8, the “Fold increase over WT, 10 nM GS™-E” value came to 314.6 fold.

Regarding B9, the “Fold increase over WT, 10 nM GS™-E” value is 386.4 fold.

In the case of B10, the “Fold increase over WT, 10 nM GS™-E” value came to 622.8 fold.

Still in this assay, the particulars now being: 10 nM PonA steroidal ligand; NIH3T3 cells; relative to Gal4/wild-type CfEcR-DEF switch activity.
With B1, the “Fold increase over WT, 10 nM PonA” value is given as 485.7 fold.

With B2, the “Fold increase over WT, 10 nM PonA” value is reported as 26.6 fold.

B3: the “Fold increase over WT, 10 nM PonA” value came to 122.3 fold.

Consider B4, for which the “Fold increase over WT, 10 nM PonA” value is listed as 136.6 fold.

As to B5, the “Fold increase over WT, 10 nM PonA” value is 20.3 fold.

For B6, the “Fold increase over WT, 10 nM PonA” value is 1005.1 fold.

Regarding B7, the “Fold increase over WT, 10 nM PonA” value stood at 11.3 fold.

Turning to B8, the “Fold increase over WT, 10 nM PonA” value is 35.8 fold.

With B9, the “Fold increase over WT, 10 nM PonA” value amounted to 1194.4 fold.

Consider B10, for which the “Fold increase over WT, 10 nM PonA” value is 42.2 fold.

The assay is the same for the next values; noted with them: 2.5 μM GS™-E non-steroidal ligand; NIH3T3 cells; relative to Gal4/wild-type CfEcR-DEF switch activity.
As to B11, the “Fold increase over WT, 2.5 μM GS™-E” value came out at 0.8 fold.

Take B12: the “Fold increase over WT, 2.5 μM GS™-E” value came out at 1.5 fold.

As to B13, the “Fold increase over WT, 2.5 μM GS™-E” value came out at 3.07 fold.

With B14, the “Fold increase over WT, 2.5 μM GS™-E” value is recorded as 0.47 fold.

Consider B15, for which the “Fold increase over WT, 2.5 μM GS™-E” value amounted to 0.7 fold.

For B16, the “Fold increase over WT, 2.5 μM GS™-E” value came out at 0.018 fold.

For the molecule B17, the “Fold increase over WT, 2.5 μM GS™-E” value was determined as 122 fold.

As for B18, the “Fold increase over WT, 2.5 μM GS™-E” value stood at 0.26 fold.

Take B19: the “Fold increase over WT, 2.5 μM GS™-E” value was found to be 8 fold.

Take B20: the “Fold increase over WT, 2.5 μM GS™-E” value worked out at 0.9 fold.

Take B21: the “Fold increase over WT, 2.5 μM GS™-E” value is listed as 17.3 fold.

As to B22, the “Fold increase over WT, 2.5 μM GS™-E” value was 0.35 fold.

As for B23, the “Fold increase over WT, 2.5 μM GS™-E” value came to 1.7 fold.

The same assay, now with this note: 2.5 μM PonA steroidal ligand; NIH3T3 cells; relative to Gal4/wild-type CfEcR-DEF switch activity.
B11: the “Fold increase over WT, 2.5 μM PonA” value was found to be 0.008 fold.

With B12, the “Fold increase over WT, 2.5 μM PonA” value stood at 0.5 fold.

For B13, the “Fold increase over WT, 2.5 μM PonA” value was 3.1 fold.

As for B14, the “Fold increase over WT, 2.5 μM PonA” value worked out at 0.002 fold.

Consider B15, for which the “Fold increase over WT, 2.5 μM PonA” value is recorded as 0.39 fold.

In the case of B16, the “Fold increase over WT, 2.5 μM PonA” value is listed as 45 fold.

As to B17, the “Fold increase over WT, 2.5 μM PonA” value came out at 3.37 fold.

Consider B18, for which the “Fold increase over WT, 2.5 μM PonA” value was 3.4 fold.

As for B19, the “Fold increase over WT, 2.5 μM PonA” value came out at 8 fold.

On to B20, for which the “Fold increase over WT, 2.5 μM PonA” value is 0.35 fold.

As for B21, the “Fold increase over WT, 2.5 μM PonA” value was determined as 35.7 fold.

B22: the “Fold increase over WT, 2.5 μM PonA” value is listed as 408 fold.

In the case of B23, the “Fold increase over WT, 2.5 μM PonA” value is on record as 0.13 fold.

Staying with this assay, now noted: GS™-E; CfEcR-DEF point mutants.
With B11, the “non-steroid activity (summary of Table 10)” value was “not significantly affected”.

Still in this assay, the particulars now being: PonA; CfEcR-DEF point mutants.
Consider B11, for which the “steroid binding activity (summary of Table 10)” value is given as “essentially eliminated”.
